The results in this text go back to patent publication US20230159662A1 (Kyowa Kirin, published 2023).

To fix the notation:
B1: human IgG1 anti-human CCR4 antibody (KM2160), K288N/A330S/P396L (antibody)
heavy: EVQLVESGGDLMKPGGSLKISCAASGFIFSNYGMSWVRQTPDMRLEWVATISSASTYSYYPDSVKGRFTISRDNAENSLYLQMNSLRSEDTGIYYCGRHSDGNFAFGYWGRGTLVTVSAASTKGPSVFPLAPSSKSTSGGTAALGCLVKDYFPEPVTVSWNSGALTSGVHTFPAVLQSSGLYSLSSVVTVPSSSLGTQTYICNVNHKPSNTKVDKKVEPKSCDKTHTCPPCPAPELLGGPSVFLFPPKPKDTLMISRTPEVTCVVVDVSHEDPEVKFNWYVDGVEVHNANTKPREEQYNSTYRVVSVLTVLHQDWLNGKEYKCKVSNKALPSPIEKTISKAKGQPREPQVYTLPPSRDELTKNQVSLTCLVKGFYPSDIAVEWESNGQPENNYKTTPLVLDSDGSFFLYSKLTVDKSRWQQGNVFSCSVMHEALHNHYTQKSLSLSPGK
light: DVLMTQTPLSLPVSLGDQASISCRSSRNIVHINGDTYLEWYLQRPGQSPKLLIYKVSNRFSGVPDRFSGSGSGTDFTLKISRVEAEDLGVYYCFQGSLLPWTFGGGTRLEIRRTVAAPSVFIFPPSDEQLKSGTASVVCLLNNFYPREAKVQWKVDNALQSGNSQESVTEQDSKDSTYSLSSTLTLSKADYEKHKVYACEVTHQGLSSPVTKSFNRGEC
B2: human IgG1 anti-human CCR4 antibody (KM2160), G316D/A378V/D399E (antibody)
heavy: EVQLVESGGDLMKPGGSLKISCAASGFIFSNYGMSWVRQTPDMRLEWVATISSASTYSYYPDSVKGRFTISRDNAENSLYLQMNSLRSEDTGIYYCGRHSDGNFAFGYWGRGTLVTVSAASTKGPSVFPLAPSSKSTSGGTAALGCLVKDYFPEPVTVSWNSGALTSGVHTFPAVLQSSGLYSLSSVVTVPSSSLGTQTYICNVNHKPSNTKVDKKVEPKSCDKTHTCPPCPAPELLGGPSVFLFPPKPKDTLMISRTPEVTCVVVDVSHEDPEVKFNWYVDGVEVHNAKTKPREEQYNSTYRVVSVLTVLHQDWLNDKEYKCKVSNKALPAPIEKTISKAKGQPREPQVYTLPPSRDELTKNQVSLTCLVKGFYPSDIVVEWESNGQPENNYKTTPPVLESDGSFFLYSKLTVDKSRWQQGNVFSCSVMHEALHNHYTQKSLSLSPGK
light: DVLMTQTPLSLPVSLGDQASISCRSSRNIVHINGDTYLEWYLQRPGQSPKLLIYKVSNRFSGVPDRFSGSGSGTDFTLKISRVEAEDLGVYYCFQGSLLPWTFGGGTRLEIRRTVAAPSVFIFPPSDEQLKSGTASVVCLLNNFYPREAKVQWKVDNALQSGNSQESVTEQDSKDSTYSLSSTLTLSKADYEKHKVYACEVTHQGLSSPVTKSFNRGEC
B3: human IgG1 anti-human CCR4 antibody (KM2160), K334E/T359N/T366S (antibody)
heavy: EVQLVESGGDLMKPGGSLKISCAASGFIFSNYGMSWVRQTPDMRLEWVATISSASTYSYYPDSVKGRFTISRDNAENSLYLQMNSLRSEDTGIYYCGRHSDGNFAFGYWGRGTLVTVSAASTKGPSVFPLAPSSKSTSGGTAALGCLVKDYFPEPVTVSWNSGALTSGVHTFPAVLQSSGLYSLSSVVTVPSSSLGTQTYICNVNHKPSNTKVDKKVEPKSCDKTHTCPPCPAPELLGGPSVFLFPPKPKDTLMISRTPEVTCVVVDVSHEDPEVKFNWYVDGVEVHNAKTKPREEQYNSTYRVVSVLTVLHQDWLNGKEYKCKVSNKALPAPIEETISKAKGQPREPQVYTLPPSRDELNKNQVSLSCLVKGFYPSDIAVEWESNGQPENNYKTTPPVLDSDGSFFLYSKLTVDKSRWQQGNVFSCSVMHEALHNHYTQKSLSLSPGK
light: DVLMTQTPLSLPVSLGDQASISCRSSRNIVHINGDTYLEWYLQRPGQSPKLLIYKVSNRFSGVPDRFSGSGSGTDFTLKISRVEAEDLGVYYCFQGSLLPWTFGGGTRLEIRRTVAAPSVFIFPPSDEQLKSGTASVVCLLNNFYPREAKVQWKVDNALQSGNSQESVTEQDSKDSTYSLSSTLTLSKADYEKHKVYACEVTHQGLSSPVTKSFNRGEC

For this assay, the target named is human CD16a (Val type) stably expressed on NK-92 cells (NK-92/CD16 transfectant) (human, UniProt P08637 17-254). Put plainly: cell-based or functional assay.
Sequence of human CD16a (Val type) stably expressed on NK-92 cells (NK-92/CD16 transfectant) (P08637 17-254 F176V): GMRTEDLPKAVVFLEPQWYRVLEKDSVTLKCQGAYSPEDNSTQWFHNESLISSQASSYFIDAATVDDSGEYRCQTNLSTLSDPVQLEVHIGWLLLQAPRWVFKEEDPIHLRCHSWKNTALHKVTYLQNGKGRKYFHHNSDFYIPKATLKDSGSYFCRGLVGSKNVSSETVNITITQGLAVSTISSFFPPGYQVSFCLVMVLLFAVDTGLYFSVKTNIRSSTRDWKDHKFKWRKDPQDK
As to B1, the “relative ADCC activity (AAA = 100)” value is -131 relative, AAA at 0.1 µg/mL = 100. In the case of B2, the “relative ADCC activity (AAA = 100)” value was -38 relative, AAA at 0.1 µg/mL = 100.

B3: the “relative ADCC activity (AAA = 100)” value is -110 relative, AAA at 0.1 µg/mL = 100.
